Source: paper PMC8934654, “Structural characterization of the ANTAR antiterminator domain bound to RNA”

T1: EutV (Enterococcus faecalis, UniProt A0A1Q1FU69 1-190)
T1 sequence: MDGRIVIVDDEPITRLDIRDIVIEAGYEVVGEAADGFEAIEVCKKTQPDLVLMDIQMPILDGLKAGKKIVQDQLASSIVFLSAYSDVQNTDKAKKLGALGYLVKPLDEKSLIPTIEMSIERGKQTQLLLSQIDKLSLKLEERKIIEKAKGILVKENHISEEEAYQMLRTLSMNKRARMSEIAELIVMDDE


Key:
EutV [1] = target: T1, EutV; test: SPR; conditions: SPR: 10 mM HEPES pH 7, 150 mM NaCl, 0.05% Tween-20, 2.5 mM MgCl2, 4 C; EMSA: 25 mM HEPES pH 7.5, 150 mM NaCl, 10 mM MgCl2, 4 C, 25 nM RNA
EutV [2] = target: T1, EutV; test: SPR; CAPture chip, 2.5 mM MgCl2, n=8; SPR: 10 mM HEPES pH 7, 150 mM NaCl, 0.05% Tween-20, 2.5 mM MgCl2, 4 C; EMSA: 25 mM HEPES pH 7.5, 150 mM NaCl, 10 mM MgCl2, 4 C, 25 nM RNA; conditions: protein: recombinant; tags: none (His-tag cleaved by TEV); chain copies: 2; label: 3' biotin-TEG; two hairpins with hexaloops P1 and P2
EutV M172A = EutV M172A (Enterococcus faecalis, UniProt A0A1Q1FU69 1-190, M172A); test: SPR; 2.5 mM MgCl2; SPR: 10 mM HEPES pH 7, 150 mM NaCl, 0.05% Tween-20, 2.5 mM MgCl2, 4 C; EMSA: 25 mM HEPES pH 7.5, 150 mM NaCl, 10 mM MgCl2, 4 C, 25 nM RNA; conditions: protein: recombinant; chain copies: 2; label: 3' biotin-TEG; two hairpins with hexaloops P1 and P2
EutV N173A/R175A/R177A = EutV N173A/R175A/R177A (Enterococcus faecalis, UniProt A0A1Q1FU69 1-190, N173A;R175A;R177A); test: as above; conditions: protein: recombinant; chain copies: 2; label: 3' biotin-TEG; two hairpins with hexaloops P1 and P2
EutV [3] = target: T1, EutV; test: SPR; unphosphorylated, CM5 streptavidin chip, n=6; SPR: 10 mM HEPES pH 7, 150 mM NaCl, 0.05% Tween-20, 2.5 mM MgCl2, 4 C; EMSA: 25 mM HEPES pH 7.5, 150 mM NaCl, 10 mM MgCl2, 4 C, 25 nM RNA; conditions: protein: recombinant; tags: none (His-tag cleaved by TEV); chain copies: 2; label: 3' biotin-TEG; two hairpins with hexaloops P1 and P2
EutV Y164A = EutV Y164A (Enterococcus faecalis, UniProt A0A1Q1FU69 1-190, Y164A); test: SPR; 2.5 mM MgCl2; SPR: 10 mM HEPES pH 7, 150 mM NaCl, 0.05% Tween-20, 2.5 mM MgCl2, 4 C; EMSA: 25 mM HEPES pH 7.5, 150 mM NaCl, 10 mM MgCl2, 4 C, 25 nM RNA; conditions: protein: recombinant; chain copies: 2; label: 3' biotin-TEG; two hairpins with hexaloops P1 and P2
EutV E160A = EutV E160A (Enterococcus faecalis, UniProt A0A1Q1FU69 1-190, E160A); test: as above; conditions: protein: recombinant; chain copies: 2; label: 3' biotin-TEG; two hairpins with hexaloops P1 and P2
EutV R142A = EutV R142A (Enterococcus faecalis, UniProt A0A1Q1FU69 1-190, R142A); test: as above; conditions: protein: recombinant; chain copies: 2; label: 3' biotin-TEG; two hairpins with hexaloops P1 and P2
EutV K143A/K147A = EutV K143A/K147A (Enterococcus faecalis, UniProt A0A1Q1FU69 1-190, K143A;K147A); test: as above; conditions: protein: recombinant; chain copies: 2; label: 3' biotin-TEG; two hairpins with hexaloops P1 and P2

Row | Molecule | Kd (EutV [1]) [µM] | Kd (EutV [2]) [µM] | binding result (EutV M172A) | binding result (EutV N173A/R175A/R177A) | Kd (EutV [3]) [µM] | binding signal (EutV Y164A) | binding signal (EutV E160A) | binding signal (EutV R142A) | binding signal (EutV K143A/K147A)
1 | P1 hairpin | 6 |  |  |  |  |  |  |  | 
2 | P2 hairpin | 3.1 |  |  |  |  |  |  |  | 
3 | EutP RNA, 3' biotin (structured_RNA) RNA: AGAAUCAGAAACACAAUGGCGUGUUUUAACAAAUCGGCAAAGGAGCCCAAG |  | 3.8 ± 2.1 | no binding | no binding | 2.2 ± 0.2 | 55 fold reduction in affinity vs WT | 60 fold reduction in affinity vs WT | 8 fold reduction in affinity vs WT | 5 fold reduction in affinity vs WT
